For the data set, the system named is Cc1c(F)c(N2CCNC(C)C2)cc2c1c(=O)c(C(=O)O)cn2C1CC1. Nature of the data set: TP_TRANSPORTER: transepithelial transport (basal to apical) in Caco-2 cells. Type of data set: functional, cell-based. A general note: Caco-2 monolayers are a common model of the intestinal barrier.

One may read the Km as the substrate concentration at which the rate is half of its maximum. “ATP-dependent translocase ABCB1 (Homo sapiens)”: the Km worked out at 580 µM.

The values are drawn from ChEMBL document CHEMBL2073795, “Secretory mechanisms of grepafloxacin and levofloxacin in the human intestinal cell line caco-2” (J Pharmacol Exp Ther, 2000).
